Laboratory results from the supplement of paper PMC10065799, “High-throughput profiling of sequence recognition by tyrosine kinases and SH2 domains using bacterial peptide display” (eLife, 2023).

Assays:
c-Src = experiment: phosphorylation enrichment, bacterial display (enrichment ratio); higher = better substrate or ligand; peptides without Tyr show the background
FGFR1 = FGFR1 (UniProt P11362); experiment: as above
Fer (mouse) = experiment: as above
EPHB2 = EPHB2 (UniProt P29323); experiment: as above
Sequence of EPHB2 (P29323 whole entry, looked up): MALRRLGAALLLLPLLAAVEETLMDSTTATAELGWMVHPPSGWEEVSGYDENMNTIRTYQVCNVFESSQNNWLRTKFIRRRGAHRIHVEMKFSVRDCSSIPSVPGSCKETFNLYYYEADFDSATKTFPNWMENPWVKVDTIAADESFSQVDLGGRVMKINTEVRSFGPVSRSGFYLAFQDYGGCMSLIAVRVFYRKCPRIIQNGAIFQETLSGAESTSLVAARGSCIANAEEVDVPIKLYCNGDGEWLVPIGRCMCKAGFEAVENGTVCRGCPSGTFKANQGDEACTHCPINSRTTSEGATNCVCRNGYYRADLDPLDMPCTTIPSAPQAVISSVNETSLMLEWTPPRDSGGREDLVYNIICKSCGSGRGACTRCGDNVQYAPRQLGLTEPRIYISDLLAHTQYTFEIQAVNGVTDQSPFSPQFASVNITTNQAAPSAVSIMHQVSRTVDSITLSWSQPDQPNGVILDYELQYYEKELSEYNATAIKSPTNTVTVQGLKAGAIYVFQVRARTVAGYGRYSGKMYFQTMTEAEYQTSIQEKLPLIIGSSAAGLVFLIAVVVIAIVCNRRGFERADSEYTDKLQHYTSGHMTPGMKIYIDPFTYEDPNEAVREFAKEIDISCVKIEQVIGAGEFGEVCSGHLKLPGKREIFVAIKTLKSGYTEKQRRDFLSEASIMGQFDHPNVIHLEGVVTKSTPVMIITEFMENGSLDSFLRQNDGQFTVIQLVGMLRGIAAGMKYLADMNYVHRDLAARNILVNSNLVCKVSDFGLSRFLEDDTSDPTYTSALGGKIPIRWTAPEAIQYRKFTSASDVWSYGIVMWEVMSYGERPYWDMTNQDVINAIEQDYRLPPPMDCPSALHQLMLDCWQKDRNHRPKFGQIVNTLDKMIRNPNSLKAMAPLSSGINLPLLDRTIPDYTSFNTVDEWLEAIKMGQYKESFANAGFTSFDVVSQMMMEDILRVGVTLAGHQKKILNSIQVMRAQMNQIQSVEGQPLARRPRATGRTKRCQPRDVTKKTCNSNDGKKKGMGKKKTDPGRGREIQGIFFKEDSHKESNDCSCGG

c-Abl (mouse) = experiment: as above
Fyn = Fyn (UniProt P06241); experiment: as above
Sequence of Fyn (P06241 whole entry, looked up): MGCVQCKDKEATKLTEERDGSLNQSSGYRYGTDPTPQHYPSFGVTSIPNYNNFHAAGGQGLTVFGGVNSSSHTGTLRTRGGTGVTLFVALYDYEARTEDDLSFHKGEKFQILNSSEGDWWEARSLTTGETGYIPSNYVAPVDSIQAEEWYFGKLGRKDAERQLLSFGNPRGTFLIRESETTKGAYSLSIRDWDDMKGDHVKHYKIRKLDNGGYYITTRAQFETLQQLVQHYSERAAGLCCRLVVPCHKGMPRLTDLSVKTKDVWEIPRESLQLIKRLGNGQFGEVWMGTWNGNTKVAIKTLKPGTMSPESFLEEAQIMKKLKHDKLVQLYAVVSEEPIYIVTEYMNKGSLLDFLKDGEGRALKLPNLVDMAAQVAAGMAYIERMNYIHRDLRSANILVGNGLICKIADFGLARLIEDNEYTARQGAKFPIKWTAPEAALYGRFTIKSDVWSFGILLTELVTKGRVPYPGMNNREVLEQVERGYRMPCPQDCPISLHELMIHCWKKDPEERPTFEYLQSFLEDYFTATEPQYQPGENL

FGFR3 = FGFR3 (UniProt P22607); experiment: as above
Sequence of FGFR3 (P22607 whole entry, looked up): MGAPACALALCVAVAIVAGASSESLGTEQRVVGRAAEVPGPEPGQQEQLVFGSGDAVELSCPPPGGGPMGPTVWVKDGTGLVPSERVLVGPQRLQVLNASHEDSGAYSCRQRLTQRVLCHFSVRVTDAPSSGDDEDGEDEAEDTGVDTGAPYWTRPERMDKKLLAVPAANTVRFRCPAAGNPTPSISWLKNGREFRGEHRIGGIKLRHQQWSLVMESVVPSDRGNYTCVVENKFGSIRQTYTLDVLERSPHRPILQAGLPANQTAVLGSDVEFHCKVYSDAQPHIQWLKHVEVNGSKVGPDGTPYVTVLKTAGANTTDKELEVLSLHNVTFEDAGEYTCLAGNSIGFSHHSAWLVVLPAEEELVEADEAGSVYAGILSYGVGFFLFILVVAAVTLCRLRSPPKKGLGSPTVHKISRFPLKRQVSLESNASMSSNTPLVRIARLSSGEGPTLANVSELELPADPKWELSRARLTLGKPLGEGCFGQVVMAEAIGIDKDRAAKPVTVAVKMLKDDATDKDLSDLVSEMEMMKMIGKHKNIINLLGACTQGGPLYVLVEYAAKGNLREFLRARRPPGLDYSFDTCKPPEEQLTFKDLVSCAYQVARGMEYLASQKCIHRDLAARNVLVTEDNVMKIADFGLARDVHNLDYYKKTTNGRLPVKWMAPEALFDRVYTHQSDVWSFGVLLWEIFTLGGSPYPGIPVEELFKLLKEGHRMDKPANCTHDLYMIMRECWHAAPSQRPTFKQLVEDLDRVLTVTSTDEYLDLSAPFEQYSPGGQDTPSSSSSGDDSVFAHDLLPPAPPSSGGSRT

MERTK = MERTK (UniProt Q12866); experiment: as above
Fes = Fes (UniProt P07332); experiment: as above
Jak2 = Jak2 (UniProt O60674); experiment: as above
Sequence of Jak2 (O60674 whole entry, looked up): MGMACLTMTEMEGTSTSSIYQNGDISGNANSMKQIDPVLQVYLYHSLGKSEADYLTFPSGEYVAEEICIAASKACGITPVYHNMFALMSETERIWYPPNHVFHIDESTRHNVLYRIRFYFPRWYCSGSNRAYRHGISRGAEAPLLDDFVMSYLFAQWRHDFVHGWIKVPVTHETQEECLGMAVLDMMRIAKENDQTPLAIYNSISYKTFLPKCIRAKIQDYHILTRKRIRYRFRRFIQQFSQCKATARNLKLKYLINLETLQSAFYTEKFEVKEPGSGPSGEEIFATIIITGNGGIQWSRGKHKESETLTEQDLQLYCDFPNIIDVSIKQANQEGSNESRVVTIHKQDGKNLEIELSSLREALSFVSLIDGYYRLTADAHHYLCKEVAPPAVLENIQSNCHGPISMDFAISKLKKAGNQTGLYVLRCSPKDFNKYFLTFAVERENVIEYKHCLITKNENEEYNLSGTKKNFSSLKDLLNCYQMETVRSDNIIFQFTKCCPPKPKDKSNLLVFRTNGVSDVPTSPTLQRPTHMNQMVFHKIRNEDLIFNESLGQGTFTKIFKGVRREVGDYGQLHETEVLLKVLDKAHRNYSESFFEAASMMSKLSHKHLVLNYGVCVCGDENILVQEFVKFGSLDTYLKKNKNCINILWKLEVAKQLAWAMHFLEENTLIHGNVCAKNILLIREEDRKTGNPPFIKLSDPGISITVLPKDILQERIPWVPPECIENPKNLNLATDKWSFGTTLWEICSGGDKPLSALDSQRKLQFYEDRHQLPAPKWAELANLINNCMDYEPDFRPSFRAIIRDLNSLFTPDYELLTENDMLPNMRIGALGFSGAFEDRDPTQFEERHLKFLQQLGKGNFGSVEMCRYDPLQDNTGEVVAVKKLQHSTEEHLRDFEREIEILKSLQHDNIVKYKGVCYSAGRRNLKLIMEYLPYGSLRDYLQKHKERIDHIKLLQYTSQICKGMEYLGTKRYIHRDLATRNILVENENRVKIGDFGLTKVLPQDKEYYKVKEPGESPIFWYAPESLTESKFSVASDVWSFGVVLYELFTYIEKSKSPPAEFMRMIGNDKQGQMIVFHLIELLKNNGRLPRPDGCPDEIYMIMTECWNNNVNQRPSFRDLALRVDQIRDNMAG

AncSZ = experiment: as above
Hck = Hck (UniProt P08631); experiment: as above
Sequence of Hck (P08631 whole entry, looked up): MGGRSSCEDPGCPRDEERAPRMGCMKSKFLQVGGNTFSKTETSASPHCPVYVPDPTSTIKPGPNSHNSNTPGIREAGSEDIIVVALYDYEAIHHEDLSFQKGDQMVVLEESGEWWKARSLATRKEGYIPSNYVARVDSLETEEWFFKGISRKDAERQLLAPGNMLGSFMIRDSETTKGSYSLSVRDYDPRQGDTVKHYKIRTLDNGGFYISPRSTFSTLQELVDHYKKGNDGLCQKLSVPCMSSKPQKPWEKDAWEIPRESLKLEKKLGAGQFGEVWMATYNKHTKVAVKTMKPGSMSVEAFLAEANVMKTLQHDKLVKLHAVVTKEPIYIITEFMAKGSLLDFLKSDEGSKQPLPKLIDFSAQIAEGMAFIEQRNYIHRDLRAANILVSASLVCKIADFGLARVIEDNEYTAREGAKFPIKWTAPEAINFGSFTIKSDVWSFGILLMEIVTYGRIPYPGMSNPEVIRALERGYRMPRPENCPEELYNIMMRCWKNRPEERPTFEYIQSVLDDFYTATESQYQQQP

EPHB1 = EPHB1 (UniProt P54762); experiment: as above
c-Src SH2 = experiment: SH2 binding enrichment of the phosphorylated peptide, bacterial display (enrichment ratio); higher = better substrate or ligand; peptides without Tyr show the background
Grb2 SH2 = Grb2 SH2 (UniProt P62993); experiment: as above
SHP2-C SH2 = experiment: as above
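Wherever SH2 binding enrichment of the phosphorylated peptide, bacterial display is given: peptide library displayed on the E. coli surface as eCPX fusions, selected cells deep-sequenced, score is each peptide's frequency after selection divided by its frequency in the input.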
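Wherever phosphorylation enrichment, bacterial display is given: 11-residue human phosphosite peptides and single-mutation variants displayed on the E. coli surface, counted by deep sequencing, each peptide's frequency after selection divided by its frequency in the unselected input library; frequency after pTyr selection over input frequency; kinase dosed for 20-30% of maximal phosphorylation in three min.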

Sequence of FGFR1 (P11362 whole entry, looked up): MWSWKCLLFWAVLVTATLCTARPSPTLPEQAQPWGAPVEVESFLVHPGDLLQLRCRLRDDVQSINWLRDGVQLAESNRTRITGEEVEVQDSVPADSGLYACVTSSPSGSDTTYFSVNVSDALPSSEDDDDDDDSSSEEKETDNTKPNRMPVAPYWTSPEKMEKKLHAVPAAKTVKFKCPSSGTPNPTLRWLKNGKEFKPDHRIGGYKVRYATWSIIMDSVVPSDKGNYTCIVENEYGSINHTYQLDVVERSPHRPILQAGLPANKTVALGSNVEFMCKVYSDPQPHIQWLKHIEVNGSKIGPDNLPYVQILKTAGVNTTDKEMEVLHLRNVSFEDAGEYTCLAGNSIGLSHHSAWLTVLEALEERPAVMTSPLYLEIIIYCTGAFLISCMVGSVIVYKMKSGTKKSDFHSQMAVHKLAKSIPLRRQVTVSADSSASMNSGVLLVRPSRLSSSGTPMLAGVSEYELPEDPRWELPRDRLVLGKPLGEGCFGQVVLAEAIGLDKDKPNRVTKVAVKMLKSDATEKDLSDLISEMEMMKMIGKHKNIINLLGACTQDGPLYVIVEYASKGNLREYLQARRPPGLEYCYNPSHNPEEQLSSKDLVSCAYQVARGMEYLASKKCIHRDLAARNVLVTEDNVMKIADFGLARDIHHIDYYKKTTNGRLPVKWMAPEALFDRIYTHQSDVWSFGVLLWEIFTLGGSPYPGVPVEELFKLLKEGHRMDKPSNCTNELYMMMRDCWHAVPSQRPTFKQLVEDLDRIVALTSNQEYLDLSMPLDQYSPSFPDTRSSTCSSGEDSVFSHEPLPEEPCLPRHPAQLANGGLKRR

Row | Sequence | SH2 binding enrichment (c-Src SH2) | SH2 binding enrichment (Grb2 SH2) | SH2 binding enrichment (SHP2-C SH2) | phosphorylation enrichment (c-Src) | phosphorylation enrichment (FGFR1) | phosphorylation enrichment (Fer (mouse)) | phosphorylation enrichment (EPHB2) | phosphorylation enrichment (c-Abl (mouse)) | phosphorylation enrichment (Fyn) | phosphorylation enrichment (FGFR3) | phosphorylation enrichment (MERTK) | phosphorylation enrichment (Fes) | phosphorylation enrichment (Jak2) | phosphorylation enrichment (AncSZ) | phosphorylation enrichment (Hck) | phosphorylation enrichment (EPHB1)
1 | IGMSSYVMLAS [GGCX_Y301_F299S] | 1.43 | 0.771 | 1.79 | 0.546 | 1.88 | 0.522 | 0.655 | 0.875 | 0.496 | 1.36 | 0.878 | 1.2 | 1.66 | 1.34 | 0.452 | 0.853
2 | TRGLEYIVPLM [CLCN4_Y548_G544R] | 0.825 | 0.835 | 0.707 | 0.541 | 1.41 | 0.409 | 0.721 | 0.89 | 0.456 | 1.04 | 0.457 | 0.78 | 2.02 | 1.18 | 0.493 | 0.804
3 | TDKLFYIYTPG [SLC27A4_Y243_S247P] | 0.383 | 0.684 | 1.12 | 0.592 | 0.728 | 0.494 | 0.502 | 0.673 | 0.422 | 0.853 | 1.46 | 1.34 | 1.68 | 1.25 | 0.498 | 0.683
4 | QEGPEYWDLET [HLA-A_Y83_Q86L] | 0.507 | 0.775 | 0.583 | 0.998 | 3.97 | 0.748 | 1.18 | 1.56 | 0.846 | 3.3 | 0.742 | 2.29 | 2.02 | 2.76 | 0.978 | 1.59
5 | EQLRAYLEGLC [HLA-C_Y183_T187L] | 0.449 | 0.704 | 0.66 | 0.618 | 0.512 | 0.607 | 0.673 | 1.13 | 0.482 | 0.843 | 0.615 | 1.58 | 1.45 | 1.34 | 0.73 | 0.653
6 | SIKGKYVTALF [KCNH2_Y611_D609G_YF] | 0.735 | 0.988 | 0.806 | 0.495 | 0.361 | 0.525 | 0.409 | 0.617 | 0.406 | 0.449 | 0.414 | 0.798 | 0.77 | 0.771 | 0.408 | 0.519
7 | TQPSPYAVYLF [RPGRIP1_Y823_R827L] | 1.16 | 1.16 | 1.17 | 5.65 | 1.34 | 7.18 | 5.25 | 9.15 | 7.04 | 1.1 | 6.5 | 1.68 | 1.01 | 1.06 | 3.73 | 3.03
8 | LRVGFYESDVM [A2M_Y708] | 4.14 | 0.934 | 1.02 | 1.33 | 1.39 | 1.62 | 0.934 | 1.9 | 1.28 | 2.89 | 2.61 | 3.12 | 2.04 | 2.97 | 0.996 | 1.86
9 | AVNDFYAAKKT [CCDC178_Y422] | 0.457 | 1.07 | 0.87 | 0.429 | 0.648 | 0.381 | 0.372 | 0.61 | 0.508 | 0.551 | 0.449 | 0.703 | 0.548 | 0.629 | 0.5 | 0.464
10 | LVRPPYSYLAL [FOXI1_Y126_S129L] | 3.64 | 1.06 | 3.61 | 0.498 | 1.62 | 1.23 | 0.536 | 0.757 | 0.438 | 1.33 | 2.78 | 0.645 | 2.16 | 0.602 | 0.678 | 0.63
11 | GPGSGYTNIMR [PKLR_Y564_R559G] | 7.2 | 3.4 | 7.01 | 0.412 | 0.35 | 0.362 | 0.398 | 0.827 | 0.391 | 0.47 | 0.393 | 0.496 | 0.533 | 0.553 | 0.444 | 0.48
12 | TENAGYYFRVS | 0.547 | 0.878 | 0.897 | 0.421 | 0.82 | 0.677 | 1.02 | 1.04 | 0.407 | 1.14 | 0.714 | 2.21 | 3.16 | 1.44 | 0.728 | 0.491
13 | TKLKDYFIFNK [CCDC42_Y149_A144T_YF] | 0.724 | 0.773 | 0.595 | 0.575 | 1.05 | 0.376 | 0.353 | 0.476 | 0.419 | 0.871 | 0.401 | 0.766 | 0.702 | 0.685 | 0.42 | 0.52
14 | YYHCTYKKRMI [CLEC12A_Y242] | 1.11 | 1.25 | 0.966 | 0.599 | 4.79 | 0.558 | 0.601 | 0.994 | 0.59 | 3.12 | 1.48 | 1.21 | 1.29 | 1.37 | 0.78 | 0.525

Now from value to sequence, other results behind:

Row | SH2 binding enrichment (c-Src SH2) | SH2 binding enrichment (Grb2 SH2) | SH2 binding enrichment (SHP2-C SH2) | Sequence | phosphorylation enrichment (c-Src) | phosphorylation enrichment (FGFR1) | phosphorylation enrichment (Fer (mouse)) | phosphorylation enrichment (EPHB2) | phosphorylation enrichment (c-Abl (mouse)) | phosphorylation enrichment (Fyn) | phosphorylation enrichment (FGFR3) | phosphorylation enrichment (MERTK) | phosphorylation enrichment (Fes) | phosphorylation enrichment (Jak2) | phosphorylation enrichment (AncSZ) | phosphorylation enrichment (Hck) | phosphorylation enrichment (EPHB1)
15 | 0.429 | 0.821 | 0.955 | YKGKKYKPLDL [RPL35_Y78] | 0.541 | 0.405 | 0.537 | 0.391 | 0.508 | 0.511 | 0.45 | 0.581 | 0.541 | 0.51 | 0.462 | 0.404 | 0.283
16 | 0.618 | 0.911 | 0.589 | TRSFDYMEGED [FGF7_Y58_G62E_YF] | 0.391 | 0.827 | 0.546 | 1.04 | 0.754 | 0.649 | 0.788 | 0.435 | 1.6 | 1.3 | 1.41 | 0.738 | 0.592
17 | 7.22 | 0.664 | 0.784 | NDTAGYFVIGG [SEL1L3_Y399_I401V] | 0.727 | 2.16 | 0.581 | 0.642 | 0.781 | 0.848 | 1.64 | 0.872 | 1.1 | 6.88 | 1.17 | 0.75 | 0.669
18 | 0.501 | 0.786 | 0.594 | FSGDFYRIQGR [DDR2_Y741_YF] | 0.551 | 0.509 | 0.393 | 0.439 | 0.578 | 0.488 | 0.594 | 0.421 | 0.817 | 0.944 | 0.723 | 0.449 | 0.543
19 | 1.05 | 0.907 | 0.683 | YSNVLYRPRGA [TMIGD2_Y197] | 0.558 | 0.784 | 4.97 | 0.6 | 0.692 | 0.615 | 0.614 | 2.23 | 0.753 | 0.596 | 0.923 | 0.651 | 1.34
20 | 0.481 | 0.768 | 0.725 | FHKALYTVRTY [PDE6C_Y266_S270T] | 0.596 | 0.655 | 0.542 | 0.645 | 0.964 | 0.599 | 0.774 | 0.519 | 1.26 | 1.16 | 0.964 | 0.725 | 0.774
21 | 1.52 | 1.77 | 1.75 | RLLVLYPWTQR [HBB_Y36_V35L] | 0.366 | 0.886 | 0.594 | 0.98 | 0.558 | 0.791 | 0.987 | 0.541 | 1.26 | 0.702 | 1.42 | 0.782 | 0.681
22 | 0.771 | 0.986 | 0.475 | ASELGYVFQAI [UROD_Y133] | 0.423 | 0.483 | 0.386 | 0.566 | 0.545 | 0.397 | 0.749 | 0.264 | 0.852 | 0.924 | 1.03 | 0.378 | 0.471
23 | 0.608 | 0.735 | 0.738 | YVPSNYVAEDR [FRK_Y104_I100V] | 0.392 | 0.441 | 0.497 | 0.424 | 0.584 | 0.411 | 0.632 | 0.414 | 0.754 | 0.655 | 0.886 | 0.382 | 0.53
24 | 0.536 | 0.872 | 0.524 | ATLDVYNPFET [SCAMP3_Y41] | 3.24 | 0.52 | 0.581 | 0.537 | 0.838 | 2.49 | 0.652 | 0.556 | 1.42 | 1.37 | 1.09 | 2.15 | 0.629
25 | 0.768 | 0.89 | 1.23 | LTGIAYGLPHW [SLC22A14_Y291_S292G] | 0.574 | 0.523 | 0.424 | 0.558 | 0.705 | 0.578 | 0.618 | 0.508 | 1.25 | 0.924 | 1.16 | 0.631 | 0.56
26 | 0.715 | 1.2 | 0.735 | MSRDVYSTDYY [NTRK2_Y702] | 3.88 | 3.94 | 0.535 | 2.65 | 0.558 | 2.77 | 2.72 | 5.06 | 0.842 | 0.788 | 1.59 | 1.73 | 2.16
27 | 0.618 | 0.794 | 0.516 | SGPRRYTVAAL [TTR_Y125_I127V] | 0.415 | 0.401 | 0.393 | 0.42 | 0.635 | 0.457 | 0.423 | 0.395 | 0.496 | 0.729 | 0.51 | 0.429 | 0.409
28 | 0.63 | 0.993 | 0.588 | DWWQEYVLNES [TGM1_Y267_R264W] | 4.1 | 1.61 | 0.678 | 0.817 | 0.777 | 0.563 | 0.97 | 0.403 | 1.51 | 1.55 | 2.11 | 0.515 | 0.831
29 | 0.562 | 0.757 | 0.431 | DVCKKYAEAKD [ALB_Y343_N342K] | 0.53 | 0.627 | 0.546 | 0.646 | 0.775 | 0.639 | 0.821 | 0.402 | 1.23 | 0.897 | 1.24 | 0.659 | 0.72
30 | 0.88 | 1.25 | 1.03 | ILTLKYLIEHG [ACTG1_Y69_P70L] | 0.483 | 0.466 | 0.562 | 0.618 | 0.84 | 0.526 | 0.839 | 0.463 | 1.32 | 1.08 | 1.05 | 0.557 | 0.689
31 | 1.01 | 1.03 | 0.766 | IFKAAYFGVFD [SLC25A4_Y191_R188K_YF] | 0.625 | 0.529 | 0.534 | 0.524 | 0.773 | 0.544 | 0.65 | 0.531 | 1.21 | 1.08 | 1.1 | 0.504 | 0.587
32 | 0.838 | 1.01 | 0.665 | DYYDLYGGEKK [PTPN11_Y66_F71K] | 3.65 | 15.8 | 0.888 | 4.52 | 0.945 | 4.04 | 14.1 | 2.72 | 1.17 | 2.36 | 2.84 | 4.06 | 6.24
33 | 0.47 | 0.87 | 0.733 | FKDGQYWIRGW [ACSF3_Y466_R471W] | 0.534 | 0.609 | 0.372 | 0.624 | 0.636 | 0.513 | 0.551 | 0.345 | 1.13 | 0.927 | 0.998 | 0.799 | 0.624
